From patent publication US20180243665A1 come the findings set out here.

Assay [1] deals with monoclonal IgG antibody in clarified CHO cell supernatant. The experiment in a line: affinity chromatography, 3-column PCC, 1.5 g/L mAb feed, 45% breakthrough, 0.5 min residence time.
Assay [2] shares this target. Nature of the assay: affinity chromatography, 3-column PCC, undiluted supernatant feed, 2.5 min residence time, column switch at 5% breakthrough.

Take “SpA variant ligands (tetramers of Zvar), covalently coupled via a C-terminal cysteine to crosslinked agarose beads (designed binder)”: in assay [1], the dynamic capacity was determined as 43 g/L. Also, the dynamic binding capacity in assay [2] was 54 g/L.
